Laboratory results published in US20030219858A1.

Molecular target: human heteromultimeric ASIC-2S.2 channel (human ASIC2A + human ASIC3) (human) (UniProt Q16515)
Assay: cell-based or functional assay

human heteromultimeric ASIC-2S.2 channel (human ASIC2A + human ASIC3) (human), sequence (Q16515 whole entry, chain 1 of 2): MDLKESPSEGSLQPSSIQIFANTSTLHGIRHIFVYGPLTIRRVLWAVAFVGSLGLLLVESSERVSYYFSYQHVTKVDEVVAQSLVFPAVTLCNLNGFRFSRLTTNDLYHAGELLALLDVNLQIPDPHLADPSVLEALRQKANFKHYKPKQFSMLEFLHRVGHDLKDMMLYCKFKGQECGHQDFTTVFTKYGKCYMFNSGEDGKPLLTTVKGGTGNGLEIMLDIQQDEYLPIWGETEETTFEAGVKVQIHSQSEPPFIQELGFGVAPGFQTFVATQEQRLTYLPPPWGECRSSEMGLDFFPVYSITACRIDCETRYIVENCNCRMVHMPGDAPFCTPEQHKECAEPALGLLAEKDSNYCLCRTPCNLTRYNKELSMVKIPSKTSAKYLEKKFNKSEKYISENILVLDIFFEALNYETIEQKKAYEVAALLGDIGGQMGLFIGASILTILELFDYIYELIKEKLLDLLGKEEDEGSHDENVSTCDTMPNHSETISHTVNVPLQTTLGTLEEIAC
human heteromultimeric ASIC-2S.2 channel (human ASIC2A + human ASIC3) (human), sequence (chain, as listed by the source, chain 2 of 2): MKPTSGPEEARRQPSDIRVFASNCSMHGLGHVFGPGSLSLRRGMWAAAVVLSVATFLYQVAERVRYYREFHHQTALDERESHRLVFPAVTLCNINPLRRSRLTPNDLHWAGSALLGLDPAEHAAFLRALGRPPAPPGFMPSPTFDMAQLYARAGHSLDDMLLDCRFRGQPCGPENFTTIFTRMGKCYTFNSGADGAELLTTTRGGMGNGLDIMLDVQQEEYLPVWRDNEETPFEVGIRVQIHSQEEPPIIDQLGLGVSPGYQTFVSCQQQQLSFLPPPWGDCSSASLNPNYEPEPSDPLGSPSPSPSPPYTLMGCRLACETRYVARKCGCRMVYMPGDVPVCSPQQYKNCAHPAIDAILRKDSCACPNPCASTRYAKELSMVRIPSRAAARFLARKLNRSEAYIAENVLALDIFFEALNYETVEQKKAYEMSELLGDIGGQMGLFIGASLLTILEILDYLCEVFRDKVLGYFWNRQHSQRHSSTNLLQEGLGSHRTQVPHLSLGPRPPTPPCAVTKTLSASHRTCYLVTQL

NPFF (from UniProt O15130 69-76) (peptide)
EC50 of potentiation of currents induced by pH 4: 2 µM
